Data on two substances can be found in publication PMC7512017.

Experiment [1] concerns the target apo-CCP2 (C-terminal domain-like carotenoid protein 2 from Tolypothrix sp. PCC 7601, without carotenoid) (Tolypothrix sp. PCC 7601). In words: SEC; analytical SEC on a Superdex 75 column; masses estimated with protein molecular weight standards.
Experiment [2] has the same target. The experiment is described as follows: SEC-MALS + other: SEC-SAXS; SEC-SAXS-MALS, Shodex KW802.5 column, 10 mM Na-phosphate pH 7.0, 100 mM NaCl, 20 °C; samples at 5 mg/mL (legend: apo tetramer sample 10 mg/mL); also run with reductant (5 mM TCEP).
The target in experiment [3] is holo-CCP2 (C-terminal domain-like carotenoid protein 2 from Tolypothrix sp. PCC 7601, with bound canthaxanthin) (Tolypothrix sp. PCC 7601). In words: SEC; analytical SEC on a Superdex 75 column; masses estimated with protein molecular weight standards.
For experiment [4] the target is unchanged. The experiment is described as follows: SEC-MALS + other: SEC-SAXS; SEC-SAXS-MALS, Shodex KW802.5 column, 10 mM Na-phosphate pH 7.0, 100 mM NaCl, 20 °C; samples at 5 mg/mL (legend: apo tetramer sample 10 mg/mL); also run with reductant (5 mM TCEP).

“And” between values parts separate entries of the source, which are not always exact repeats. Identical values can stand only once.

Turning to “apo-CCP2 (C-terminal domain-like carotenoid protein 2 from Tolypothrix sp. PCC 7601, without carotenoid) (natural protein)”, the stoichiometry N in experiment [1] is 2 and 4; in experiment [2], 2 and 3 and 4.

Consider “holo-CCP2 (C-terminal domain-like carotenoid protein 2 from Tolypothrix sp. PCC 7601, with bound canthaxanthin) (natural protein)”, for which the stoichiometry N in experiment [3] was 2 and 4; in experiment [4] it was 2 and 4.
